{
  "source": "patent US20180112202A1",
  "about": "(ACE BIOSCIENCES A S, published 2018)",
  "proteins": {"B1": {"name": "recombinant human Galactocerebroside beta-Galactosidase (rhGALC), full length 80 kDa form (enzyme)", "chain": "YVLDDSDGLGREFDGIGAVSGGGATSRLLVNYPEPYRSQILDYLFKPNFGASLHILKVEIGGDGQTTDGTEPSHMHYALDENYFRGYEWWLMKEAKKRNPNITLIGLPWSFPGWLGKGFDWPYVNLQLTAYYVVTWIVGAKRYHDLDIDYIGIWNERSYNANYIKILRKMLNYQGLQRVKIIASDNLWESISASMLLDAELFKVVDVIGAHYPGTHSAKDAKLTGKKLWSSEDFSTLNSDMGAGCWGRILNQNYINGYMTSTIAWNLVASYYEQLPYGRCGLMTAQEPWSGHYVVESPVWVSAHTTQFTQPGWYYLKTVGHLEKGGSYVALTDGLGNLTIIIETMSHKHSKCIRPFLPYFNVSQQFATFVLKGSFSEIPELQVWYTKLGKTSERFLFKQLDSLWLLDSDGSFTLSLHEDELFTLTTLTTGRKGSYPLPPKSQPFPSTYKDDFNVDYPFFSEAPNFADQTGVFEYFTNIEDPGEHHFTLRQVLNQRPITWAADASNTISIIGDYNWTNLTIKCDVYIETPDTGGVFIAGRVNKGGILIRSARGIFFWIFANGSYRVTGDLAGWIIYALGRVEVTAKKWYTLTLTIKGHFASGMLNDKSLWTDIPVNFPKNGWAAIGTHSFEFAQFDNFLVEATR", "modifications": "glycosylated (about 7% carbohydrate w:w, 2-3 mol mannose-6-phosphate per mol), sites not stated", "notes": "Expressed in CHO cells and purified from harvest; P45803 looks like a misprint; also called Galactocerebrosidase; Galactosylceramidase"}},
  "target": "the molecule itself",
  "test": "Native PAGE, self-association; the cell continues below as 'dimer ~7 forms visible from monomer to multimer'",
  "text": "Native PAGE was run for information of rhGALC formations at neutral pH. […] Final product TG1106 was compared to rhGALC in-house standard StG03 and the pattern was similar. It could be that the lowest band (apparent MW 80-100 kDa) is rhGALC monomer and the second band is rhGALC dimer, followed by formations adding on more rhGALC monomers and/or dimers. Up to seven forms of rhGALC were visualized on the gel. rhGALC dimer was the most pronounced independent on load. An earlier electron microscopy study has verified that several forms exist of which the major form has a diameter of ˜20 nm, which could correspond to rhGALC dimer.",
  "data": [
    {"protein": "B1", "values": [
      {"measurement": "binding result", "value": "binds"}
    ]}
  ]
}
